Laboratory results: patent US20250333481A1

Target: chimeric receptor consisting of extracellular domain of BDNF receptor TrkB and transmembrane domain and cytoplasmic domain of thrombopoietin receptor c-Mpl
Experiment: cell-based or functional assay

recombinant wild-type hBDNF (Abcam) (from UniProt P23560 129-247) (ligand)
EC50, cell proliferation of BaF/TrkB·c-Mpl chimera cells (MTS, absorbance at 490 nM): 1.19 nM
